Substrate in this data set: NCC(N)C(=O)O
Briefly: purified protein. It is filed as biochemical, Salmonella enterica. As to conditions: potassium phosphate pH 8.0, 28 °C, PLP, NADH, LDH coupling.

B1: Diamino propionic acid (DAP) ammonia lyase (Salmonella enterica subsp. enterica serovar Typhimurium str. LT2) (protein)
chain: MHELIKYQFNTRRKKYGTGAALSLLNGNVGHEVLAFHKKLPNYAVTPLHNLAHLSQRLGLGSIHIKDESWRFGLNAFKGLGGSYAVGKYLADKLQCDINSLSFAALNTPEIKEKIKDCVFVTATDGNHGRGVAWAAEQLGLKAVVYMPKGSSLIRAENIRHHGAECTITDLNYDDAVRLAHRMAQTKGWVLLQDTAWTGYEEIPTWIMQGYMTLAVEAYEQLAETNSPLPTHLILQAGVGSFAGSVMGYFVEKMQENIPNIIVVEPHQANCLYQSAVMDDGQPHCVTGDMATIMAGLACGEPNIISWPIIRDNTSCFISADDCLAAKGMRISAAPRPGTDTPFISGESGAIGVGLLYELMNNMHYQDLANRLQLDASAHVLLISTEGDTSPDIYEDIVWNGRSA
With B1, the Km was determined as 685 µM.

(Values after paper PMC101404.)
